Assay results published in article PMC11727998, “Purification and Electron Transfer from Soluble c-Type Cytochrome TorC to TorA for Trimethylamine N-Oxide Reduction” (International Journal of Molecular Sciences, 2024).

T1: TorA (TMAO reductase) (E. coli, UniProt P33225 40-848)
T1 sequence: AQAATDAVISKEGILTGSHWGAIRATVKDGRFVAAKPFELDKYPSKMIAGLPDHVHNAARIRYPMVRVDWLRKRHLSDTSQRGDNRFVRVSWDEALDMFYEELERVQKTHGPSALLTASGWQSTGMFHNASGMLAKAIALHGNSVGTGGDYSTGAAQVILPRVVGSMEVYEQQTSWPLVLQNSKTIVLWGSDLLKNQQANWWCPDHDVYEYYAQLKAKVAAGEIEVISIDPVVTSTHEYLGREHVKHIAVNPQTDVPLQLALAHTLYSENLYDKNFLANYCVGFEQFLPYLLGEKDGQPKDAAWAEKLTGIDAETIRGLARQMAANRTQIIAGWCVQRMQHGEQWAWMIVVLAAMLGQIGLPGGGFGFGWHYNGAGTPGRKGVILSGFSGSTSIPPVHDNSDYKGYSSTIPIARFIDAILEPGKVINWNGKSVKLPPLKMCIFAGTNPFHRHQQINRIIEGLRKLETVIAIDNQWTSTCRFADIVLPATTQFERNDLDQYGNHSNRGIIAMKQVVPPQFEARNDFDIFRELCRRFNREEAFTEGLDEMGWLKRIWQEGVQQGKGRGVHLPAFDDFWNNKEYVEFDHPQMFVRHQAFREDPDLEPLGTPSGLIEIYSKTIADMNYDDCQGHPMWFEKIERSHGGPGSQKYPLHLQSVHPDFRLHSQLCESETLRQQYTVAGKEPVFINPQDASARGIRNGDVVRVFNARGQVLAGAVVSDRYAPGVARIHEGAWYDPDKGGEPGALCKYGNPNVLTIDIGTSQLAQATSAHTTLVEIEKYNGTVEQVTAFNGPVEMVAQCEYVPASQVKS

T2: apo-TorA (E. coli, UniProt P33225 40-848)
T2 construct: TorA, TMAO reductase of E. coli, apo form; Apo form (without cofactor); source: purified following published procedures [31]
T2 sequence: T1 sequence

T3: apo-TorC (soluble TorC without hemes) (E. coli, UniProt P33226 21-390)
T3 construct: TorC of E. coli lacking the N-terminal 20 amino acid membrane anchor, made without heme insertion; also called soluble apo-TorC; source: E. coli, 'soluble torC' gene expressed without the ccm gene cluster (pEC86) and without hemin, purified
T3 sequence (looked up): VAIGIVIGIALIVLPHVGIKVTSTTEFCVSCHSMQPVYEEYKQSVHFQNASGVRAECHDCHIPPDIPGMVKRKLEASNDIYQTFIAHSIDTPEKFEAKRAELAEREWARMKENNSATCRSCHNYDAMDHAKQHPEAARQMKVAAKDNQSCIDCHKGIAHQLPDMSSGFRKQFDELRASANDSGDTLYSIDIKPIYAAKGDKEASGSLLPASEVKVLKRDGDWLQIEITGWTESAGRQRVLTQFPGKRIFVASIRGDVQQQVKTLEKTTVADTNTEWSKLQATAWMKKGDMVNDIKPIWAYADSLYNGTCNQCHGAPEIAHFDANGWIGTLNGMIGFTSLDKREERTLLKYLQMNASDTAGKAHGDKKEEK

B1: soluble TorC (heme-containing, holo-TorC) (natural protein, E. coli, UniProt P33226 21-390, looked up)
chain: T3 sequence (looked up)
modifications: heme c at the five CXXCH motifs (iron saturation about 75% of five hemes)
notes: TorC, pentahemic c-type cytochrome of E. coli, lacking the N-terminal 20 amino acid membrane anchor (first 60 nucleotides of the gene deleted); also called soluble periplasmic TorC; source: E. coli HM125 with pTorC-SS and pEC86 (ccmABCDEFGH), hemin added, purified (Ni-NTA, gel filtration)
B2: TorA with soluble TorC (physiological electron transfer assay) (Escherichia coli K-12) (protein)
chain: T1 sequence
notes: recombinant TorA plus soluble TorC (first 20 residues, membrane anchor, deleted); with Cytochrome c-type protein TorC
B3: TorA (TMAO reductase) (Escherichia coli K-12) (protein)
chain: T1 sequence
notes: recombinant from plasmid pTorAD (torAD in pJF119EH), expressed in E. coli; bis-MGD enzyme; monomer; also purified as TorAD2 complex; first 48 and last 5-10 residues not seen in crystal
B4: TorD (natural protein, E. coli, UniProt P36662 1-199, looked up)
chain: MTTLTAQQIACVYAWLAQLFSRELDDEQLTQIASAQMAEWFSLLKSEPPLTAAVNELENRIATLTVRDDARLELAADFCGLFLMTDKQAALPYASAYKQDEQEIKRLLVEAGMETSGNFNEPADHLAIYLELLSHLHFSLGEGTVPARRIDSLRQKTLTALWQWLPEFVARCRQYDSFGFYAALSQLLLVLVECDHQNR
notes: source: co-expressed from plasmid pTorAD and co-purified with TorA
B5: TorSN (periplasmic detection domain of TorS) (domain or fragment, E. coli, UniProt P39453 30-332, looked up)
chain: NLRFISQVEKDNTQALIPTMNMARQLSEASAWELFAAQNLTSADNEKMWQAQGRMLTAQSLKINALLQALREQGFDTTAIEQQEQEISRSLRQQGELVGQRLQLRQQQQQLSQQIVAAADEIARLAQGQANNATTSAGATQAGIYDLIEQDQRQAAESALDRLIDIDLEYVNQMNELRLSALRVQQMVMNLGLEQIQKNAPTLEKQLNNAVKILQRRQIRIEDPGVRAQVATTLTTVSQYSDLLALYQQDSEISNHLQTLAQNNIAQFAQFSSEVSQLVDTIELRNQHGLAHLEKASARGQYS
notes: TorS, sensor histidine kinase of E. coli, periplasmic detection domain; also called periplasmic TorS; source: from plasmid pET-Sp (pET21), purified following published procedures [7]

How the values were obtained:
soluble TorC = molecular target: T4, soluble TorC (Escherichia coli, UniProt P33226); experiment: UV-visible spectroscopy, reduction of TorC; type: biochemical; details: electron donor, anaerobic
T4 construct: expressed in E. coli HM125 with ccmABCDEFGH; 43 kDa monomer

TorA (Escherichia coli) = TorA (Escherichia coli) (UniProt P33225); details: cited from earlier work
TorA (TMAO reductase) [1] = molecular target: T1, TorA (TMAO reductase); experiment: cell-based or functional assay
[2] = molecular target: TorAD2 (TorA purified in a 1:2 stoichiometry with TorD) (E. coli) (UniProt P33225); experiment: MST; Monolith NT.115, TorAD2 labelled with NT-647-NHS at constant concentration (5 nM), soluble TorC titrated, 25 °C, premium capillaries
[3] = molecular target: TorAD2 (TorA purified in a 1:2 stoichiometry with TorD) (E. coli) (UniProt P33225); experiment: SPR; Biacore T200, CM5 chip, target immobilised via amine coupling, 25 °C, 30 µL/min, 20 mM phosphate, 150 mM NaCl, 0.005% Tween 20, pH 7.4; global fit, 1:1 binding; mean of three measurements
apo-TorA = molecular target: T2, apo-TorA; experiment: as above; details: both partners purified
GC-MS of derivatized TMA = substrate: C[N+](C)(C)[O-]; experiment: GC-MS of derivatized TMA; type: biochemical, Escherichia coli; details: 5 µM menadiol as electron donor via soluble TorC, 100 mM Sörensen buffer pH 6.5, 37 °C, anaerobic
Text: GC-MS of derivatized TMA on TorA with soluble TorC (physiological electron transfer assay)

purified protein = substrate: C[N+](C)(C)[O-]; experiment: purified protein; type: biochemical, Escherichia coli; details: 400 µM benzyl viologen (dithionite-reduced), 100 mM Sörensen buffer pH 6.5, 37 °C, anaerobic, 3 nM TorA
TorA (TMAO reductase) [4] = molecular target: T1, TorA (TMAO reductase); experiment: SEC; TorA co-purified with TorD (plasmid pTorAD); TorAD2 complex of 136.5 kDa on analytical gel filtration; details: partners not purified
[5] = molecular target: B1; experiment: SPR; Biacore T200, CM5 chip, target immobilised via amine coupling, 25 °C, 30 µL/min, 20 mM phosphate, 150 mM NaCl, 0.005% Tween 20, pH 7.4; global fit, 1:1 binding; mean of three measurements; details: both partners purified
[6] = molecular target: T3, apo-TorC (soluble TorC without hemes); experiment: as above; details: both partners purified

Molecule: Cc1cc(O)c2ccccc2c1O [menadiol]
UV-visible spectroscopy, reduction of TorC (soluble TorC): menadiol can reduce soluble TorC, which can be re-oxidized by TorA

Molecule: TorC TorCN (from UniProt P33226)
Kd (TorA (Escherichia coli)): 45 nM

Molecule: B1
kcat of TMAO reduction by TorA with menadiol and soluble TorC as electron donors (TMA quantified by GC-MS) (TorA (TMAO reductase) [1]): 0.145 s⁻¹
Kd [2]: 1070 nM
Kd [3]: 309 nM
Kd (apo-TorA): 266 nM

Molecule: B2
Km (GC-MS of derivatized TMA): 9.8 ± 2.53 µM
kcat (GC-MS of derivatized TMA): 0.145 ± 0.05 s⁻¹

Molecule: B3
Km (purified protein): 22.06 ± 0.75 µM
kcat (purified protein): 228 ± 46.3 s⁻¹

Molecule: B4
stoichiometry N (TorA (TMAO reductase) [4]): 2 TorD per TorA

Molecule: B5
Kd [5]: 1030 nM
Kd [6]: 943 nM
